Measurements: article PMC4881810

Molecular target: SNA I lectin from Sambucus nigra (Sambucus nigra)
Test: electrochemical impedance spectroscopy

SNA I lectin from Sambucus nigra (Sambucus nigra), sequence (Q41358 29-289 limits assumed, chain 1 of 2): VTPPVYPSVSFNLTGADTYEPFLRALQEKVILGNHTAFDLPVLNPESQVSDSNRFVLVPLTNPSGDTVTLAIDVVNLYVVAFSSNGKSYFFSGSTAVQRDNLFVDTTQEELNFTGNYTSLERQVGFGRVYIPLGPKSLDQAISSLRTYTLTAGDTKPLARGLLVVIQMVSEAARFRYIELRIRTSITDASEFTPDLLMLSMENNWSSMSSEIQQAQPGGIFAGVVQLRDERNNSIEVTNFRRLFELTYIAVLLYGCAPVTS
SNA I lectin from Sambucus nigra (Sambucus nigra), sequence (Q41358 309-570 limits assumed, chain 2 of 2): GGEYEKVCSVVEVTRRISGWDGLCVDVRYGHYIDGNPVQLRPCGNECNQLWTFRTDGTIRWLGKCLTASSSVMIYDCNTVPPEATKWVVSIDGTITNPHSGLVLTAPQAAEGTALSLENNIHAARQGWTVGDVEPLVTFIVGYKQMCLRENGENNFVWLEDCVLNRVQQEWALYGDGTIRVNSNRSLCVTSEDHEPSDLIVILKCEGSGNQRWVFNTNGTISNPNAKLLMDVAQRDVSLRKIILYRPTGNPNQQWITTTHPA

B1: fetuin (natural protein)
chain: IPLDPVAGYKEPACDDPDTEQAALAAVDYINKHLPRGYKHTLNQIDSVKVWPRRPTGEVYDIEIDTLETTCHVLDPTPLANCSVRQQTQHAVEGDCDIHVLKQDGQFSVLFTKCDSSPDSAEDVRKLCPDCPLLAPLNDSRVVHAVEVALATFNAESNGSYLQLVEISRAQFVPLPVSVSVEFAVAATDCIAKEVVDPTKCNLLAEKQYGFCKGSVIQKALGGEDVRVTCTLFQTQPVIPQPQPDGAEAEAPSAVPDAAGPTPSAAGPPVASVVVGPSVVAVPLPLHRAHYDLRHTFSGVASVESSSGEAFHVGKTPIVGQPSIPGGPVRLCPGRIRYFKI
specific sensitivity (OxASF subtracted): 259 Ω decade^-1
